# Measurements from patent US20250043302A1, “MUTATED HYDROXYPHENYLPYRUVATE DIOXYGENASE POLYPEPTIDE, AND CODING GENE AND USE THEREOF” (BEIJING DABEINONG BIOTECHNOLOGY CO., LTD., priority 2021, published 2025).
# Assays:
# Format in all cases: in vivo
# [1] = tested on: Arabidopsis thaliana T1 plants; assay: Isoxaflutole tolerance of transgenic Arabidopsis thaliana T1 plants (spray, bleached leaf area grade, damage score); details: for Resistance evaluation / Classification and statistics of the grade of pesticide damage: Grade 0 / Classification and statistics of the grade of pesticide damage: Grade 1 / Classification and statistics of the grade of pesticide damage: Grade 2 / Classification and statistics of the grade of pesticide damage: Grade 3 / Scores: 7 DAT, Table 2; for Classification and statistics of the grade of pesticide damage: Grade 0 / Classification and statistics of the grade of pesticide damage: Grade 1 / Classification and statistics of the grade of pesticide damage: Grade 2 / Classification and statistics of the grade of pesticide damage: Grade 3: number of plants; for Scores: pesticide damage score 0-100;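 on Scores: Weighted damage index from 0 to 100 where higher means more damage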
# Summary of the method: (§1)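 Read-out: per-plant damage grade 0–3 from proportion of bleached leaf area at 7 DAT (1 <50%, 2 >50%, 3 100%). Plants were T1 transformants, glufosinate-selected, plus wild-type CK, sprayed 18 days post-sowing. Rates: topramezone 25–200, isoxaflutole 35–280, mesotrione 52.5–420 g ai/ha.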
# [2] = tested on: Arabidopsis thaliana T1 plants; assay: Topramezone tolerance of transgenic Arabidopsis thaliana T1 plants (spray, bleached leaf area grade, damage score); details: for Classification and statistics of the grade of pesticide damage: Grade 0 / Classification and statistics of the grade of pesticide damage: Grade 1 / Classification and statistics of the grade of pesticide damage: Grade 2 / Classification and statistics of the grade of pesticide damage: Grade 3: number of plants; for Classification and statistics of the grade of pesticide damage: Grade 0 / Classification and statistics of the grade of pesticide damage: Grade 1 / Classification and statistics of the grade of pesticide damage: Grade 2 / Classification and statistics of the grade of pesticide damage: Grade 3 / Scores / Resistance evaluation: 7 DAT, Table 1; for Scores: pesticide damage score 0-100
# Source text: T1 transformants were initially selected from the untransformed seeds using a glufosinate selection scheme. The Arabidopsis thaliana T1 plants (AsHPPD-02) into which the AsHPPD-02 nucleotide sequence was introduced, the Arabidopsis thaliana T1 plants (AsHPPDm-F372A-02) into which the AsHPPDm-F372A-02 nucleotide sequence was introduced, the Arabidopsis thaliana T1 plants (AsHPPDm-F383W-02) into which the AsHPPDm-F383W-02 nucleotide sequence was introduced, the Arabidopsis thaliana T1 plants (AsHPPDm-F372A-F383W-02) into which the AsHPPDm-F372A-F383W-02 nucleotide sequence was introduced, the Arabidopsis thaliana T1 plants (DBN11726N) into which the control recombinant expression vector DBN11726N was introduced, and the wild-type Arabidopsis thaliana plants (CK) (18 days after sowing) were sprayed respectively with topramezone at three concentrations (100 g ai/ha (four-fold field concentration, 4×), 200 g ai/ha (eight-fold field concentration, 8×), and 0 g ai/ha (water, 0×)), isoxaflutole at three concentrations (140 g ai/ha (two-fold field concentration, 2×), 280 g ai/ha (four-fold field concentration, 4×), and 0 g ai/ha (water, 0×)), and mesotrione at three concentrations (210 g ai/ha (two-fold field concentration, […]), 420 g ai/ha (four-fold field concentration, 4×), and 0 g ai/ha (water, 0×)), to determine the tolerance of Arabidopsis thaliana to the herbicides. The degree of damage caused by the herbicide was measured for each plant according to the proportion of bleached leaf area (the proportion of bleached leaf area=bleached leaf area/total leaf area×100%) 7 days after spraying (7 DAT): the case where there is basically no bleached phenotype is defined as grade 0, the case where the proportion of bleached leaf area is less than 50% is defined as grade 1, the case where the proportion of bleached leaf area is more than 50% is defined as grade 2, and the case where the proportion of bleached leaf area is 100% grade is defined as grade 3.
# According to the method as described above in point 6 of Example 1, the aforementioned Arabidopsis thaliana T1 plants and wild-type Arabidopsis thaliana plants (CK) (18 days after sowing) were sprayed respectively with topramezone at three concentrations (25 g ai/ha (one-fold field concentration, 1×). 100 g ai/ha (four-fold field concentration, 4×), and 0 g ai/ha (water, 0×)), isoxaflutole at three concentrations (35 g ai/ha (half-fold field concentration, 0.5×). 70 g ai/ha (one-fold field concentration, 1×), and 0 g ai/ha (water, 0×)), and mesotrione at three concentrations (52.5 g ai/ha (half-fold field concentration, 0.5×), 105 g ai/ha (one-fold field concentration, 1×), and 0 g ai/ha (water, 0×)) to detect the tolerance of Arabidopsis thaliana to the herbicides.
# According to the method as described above in point 6 of Example 1, the aforementioned Arabidopsis thaliana T1 plants and wild-type Arabidopsis thaliana plants (CK) (18 days after sowing) were sprayed with topramezone at three different concentrations (i.e., 100 g ai/ha (four-fold field concentration, 4×), 200 g ai/ha (eight-fold field concentration, 8×) and 0 g ai/ha (water, 0×)), isoxaflutole at three different concentrations (i.e., 140 g ai/ha (two-fold field concentration, 2×), 280 g ai/ha (four-fold field concentration, 4×) and 0 g ai/ha (water, 0×)), and mesotrione at three different concentrations (i.e., 210 g ai/ha (two-fold field concentration, 2×), 420 g ai/ha (four-fold field concentration, 4×) and 0 g ai/ha (water, 0×)) respectively to detect the herbicide tolerance of Arabidopsis thaliana. […]
# [3] = tested on: Arabidopsis thaliana T1 plants; assay: Mesotrione tolerance of transgenic Arabidopsis thaliana T1 plants (spray, bleached leaf area grade, damage score); parameters: Scores: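 damage score 0-100 computed as Σ(N×S)/(T×M)×100 over grades 0-3 with higher meaning more damage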; details: for Resistance evaluation / Classification and statistics of the grade of pesticide damage: Grade 0 / Classification and statistics of the grade of pesticide damage: Grade 1 / Classification and statistics of the grade of pesticide damage: Grade 2 / Classification and statistics of the grade of pesticide damage: Grade 3 / Scores: 7 DAT, Table 3; for Classification and statistics of the grade of pesticide damage: Grade 0 / Classification and statistics of the grade of pesticide damage: Grade 1 / Classification and statistics of the grade of pesticide damage: Grade 2 / Classification and statistics of the grade of pesticide damage: Grade 3: number of plants; for Scores: pesticide damage score 0-100
# Summary of the method: as §1
# [4] = mesotrione 210 g ai/ha (two-fold field concentration)
molecule,measurement,setting,value
"AsHPPDm-F372A-F383W-02: nucleotide sequence encoding Avena sativa HPPD with F372A+F383W; vector DBN11726 (nucleic acid, AsHPPDm-F372A-F383W-02 Nucleotide Sequence, vector DBN11726) DNA: ATGCCACCTACTCCAGCTACAGCTACTGGTGCTGCTGCTGCTGCCGTTACTCCTGAGCACGCTGCCAGGTCATTCCCCAGGGTGGTTCGCGTGAACCCCAGATCTGATAGGTTCCCAGTTCTGAGCTTCCACCATGTTGAGCTGTGGTGCGCTGATGCTGCTTCTGCTGCTGGCAGGTTCTCTTTCGCTCTTGGTGCTCCACTCGCTGCTAGATCTGATCTGTCTACAGGAAATAGCGCTCATGCCTCACTCCTGCTTCGCTCAGGTGCTTTGGCCTTCCTCTTCACCGCTCCATATGCTCCCCCACCTCAGGAGGCTGCTACTGCTGCTGCTACAGCCTCCATTCCAAGCTTCTCAGCTGATGCCGCTAGAACCTTCGCTGCTGCTCATGGACTTGCCGTGAGGTCTGTTGGTGTTCGCGTGGCTGATGCTGCTGAGGCTTTCAGAGTTTCCGTTGCCGGCGGAGCTAGGCCAGCTTTCGCTCCTGCTGATTTGGGACATGGTTTCGGCCTGGCTGAGGTTGAGCTTTACGGTGACGTGGTTCTCCGCTTCGTGTCTTACCCAGATGAGACTGACCTGCCTTTCCTTCCCGGCTTCGAGAGAGTTTCCTCTCCTGGTGCCGTGGATTACGGCCTGACAAGGTTCGACCACGTGGTTGGAAACGTTCCCGAGATGGCTCCAGTGATCGATTACATGAAGGGCTTCCTTGGATTCCATGAGTTCGCCGAGTTCACTGCTGAGGACGTGGGAACCACTGAGTCCGGTTTGAACTCTGTGGTTCTCGCCAACAATTCTGAGGCTGTTTTGCTCCCTCTGAATGAGCCTGTGCATGGAACCAAGAGGAGAAGCCAGATTCAAACTTACCTGGAGTACCACGGTGGCCCTGGAGTTCAGCATATCGCCCTTGCTTCTAATGATGTGTTGCGCACACTCAGAGAGATGCGCGCCAGAACCCCCATGGGAGGTTTCGAGTTCATGGCCCCACCACAGGCTAAGTACTACGAGGGCGTTAGAAGGATTGCTGGAGACGTGTTGAGCGAGGAGCAGATCAAGGAGTGCCAAGAGCTGGGTGTTCTTGTGGATAGGGATGACCAGGGCGTTCTGCTTCAAATTGCCACTAAGCCAGTGGGCGACCGCCCTACATTCTGGCTTGAGATGATTCAAAGAATCGGCTGCATGGAGAAGGATGAGGTTGGACAGGAGTACCAAAAGGGCGGATGCGGTGGCTTCGGAAAGGGTAACTTCAGCGAGTTGTTCAAGTCAATCGAGGACTACGAGAAGAGCCTCGAGGTGAAGCAGTCAGTGGTTGCCCAAAAGTCCTGA",tolerance to isoxaflutole (in words),[1]; in vivo,different degrees of tolerance
same,Resistance evaluation,[1]; isoxaflutole 140 g ai/ha (2×),highly resistant (highly resistant plants (scores 0-15))
same,Resistance evaluation,[1]; isoxaflutole 280 g ai/ha (4×),highly resistant (highly resistant plants (scores 0-15))
same,tolerance to isoxaflutole (resistance class),[1]; isoxaflutole at four-fold field concentration,highly-resistant
same,tolerance to isoxaflutole (resistance class),[1]; isoxaflutole at two-fold field concentration,highly-resistant
same,Classification and statistics of the grade of pesticide damage: Grade 0,[1]; isoxaflutole 140 g ai/ha (2×),16
same,Classification and statistics of the grade of pesticide damage: Grade 1,[1]; isoxaflutole 140 g ai/ha (2×),0
same,Classification and statistics of the grade of pesticide damage: Grade 2,[1]; isoxaflutole 140 g ai/ha (2×),0
same,Classification and statistics of the grade of pesticide damage: Grade 3,[1]; isoxaflutole 140 g ai/ha (2×),0
same,Classification and statistics of the grade of pesticide damage: Grade 0,[1]; isoxaflutole 280 g ai/ha (4×),12
same,Classification and statistics of the grade of pesticide damage: Grade 1,[1]; isoxaflutole 280 g ai/ha (4×),4
same,Classification and statistics of the grade of pesticide damage: Grade 2,[1]; isoxaflutole 280 g ai/ha (4×),0
same,Classification and statistics of the grade of pesticide damage: Grade 3,[1]; isoxaflutole 280 g ai/ha (4×),0
same,Scores,[1]; isoxaflutole 140 g ai/ha (2×),0
same,Scores,[1]; isoxaflutole 280 g ai/ha (4×),8
same,Classification and statistics of the grade of pesticide damage: Grade 0,[2]; topramezone 100 g ai/ha (4×),16
same,Classification and statistics of the grade of pesticide damage: Grade 1,[2]; topramezone 100 g ai/ha (4×),0
same,Classification and statistics of the grade of pesticide damage: Grade 2,[2]; topramezone 100 g ai/ha (4×),0
same,Classification and statistics of the grade of pesticide damage: Grade 3,[2]; topramezone 100 g ai/ha (4×),0
same,Classification and statistics of the grade of pesticide damage: Grade 0,[2]; topramezone 200 g ai/ha (8×),16
same,Classification and statistics of the grade of pesticide damage: Grade 1,[2]; topramezone 200 g ai/ha (8×),0
same,Classification and statistics of the grade of pesticide damage: Grade 2,[2]; topramezone 200 g ai/ha (8×),0
same,Classification and statistics of the grade of pesticide damage: Grade 3,[2]; topramezone 200 g ai/ha (8×),0
same,Scores,[2]; topramezone 100 g ai/ha (4×),0
same,Scores,[2]; topramezone 200 g ai/ha (8×),0
same,Resistance evaluation,[2]; topramezone 100 g ai/ha (4×),highly resistant (highly resistant plants (scores 0-15))
same,Resistance evaluation,[2]; topramezone 200 g ai/ha (8×),highly resistant (highly resistant plants (scores 0-15))
same,tolerance to topramezone (resistance class),[2]; topramezone at four-fold or eight-fold field concentration,highly-resistant
same,tolerance to mesotrione (in words),[3]; in vivo,different degrees of tolerance
same,Resistance evaluation,[3]; [4],highly resistant (highly resistant plants (scores 0-15))
same,Resistance evaluation,[3]; mesotrione 420 g ai/ha (4×),highly resistant (highly resistant plants (scores 0-15))
same,tolerance to mesotrione (resistance class),[3]; mesotrione at four-fold field concentration,highly-resistant
same,tolerance to mesotrione (resistance class),[3]; mesotrione at two-fold field concentration,highly-resistant
same,Classification and statistics of the grade of pesticide damage: Grade 0,[3]; [4],16
same,Classification and statistics of the grade of pesticide damage: Grade 1,[3]; [4],0
same,Classification and statistics of the grade of pesticide damage: Grade 2,[3]; [4],0
same,Classification and statistics of the grade of pesticide damage: Grade 3,[3]; [4],0
same,Classification and statistics of the grade of pesticide damage: Grade 0,[3]; mesotrione 420 g ai/ha (4×),15
same,Classification and statistics of the grade of pesticide damage: Grade 1,[3]; mesotrione 420 g ai/ha (4×),1
same,Classification and statistics of the grade of pesticide damage: Grade 2,[3]; mesotrione 420 g ai/ha (4×),0
same,Classification and statistics of the grade of pesticide damage: Grade 3,[3]; mesotrione 420 g ai/ha (4×),0
same,Scores,[3]; [4],0
same,Scores,[3]; mesotrione 420 g ai/ha (4×),2
